The data set has as its target OCT4 K222F (Homo sapiens, UniProt Q01860 1-360, K222F). Put plainly: EMSA; homodimer; significantly increased vs WT and other variants; LightShift EMSA: 20 ul, 1.5 ug His-OCT4, 0.5 ug His-SOX2 where used, 50 nM biotin-dsDNA, 1 ul poly(dI-dC), 1x loading buffer (salt and pH not stated), 30 min, 25 C. The note with it: protein: recombinant; tags: His (pET28a); label: 5'-biotin on sense strand; blunt.

OCT4 K222F, sequence (Q01860 whole entry K222F): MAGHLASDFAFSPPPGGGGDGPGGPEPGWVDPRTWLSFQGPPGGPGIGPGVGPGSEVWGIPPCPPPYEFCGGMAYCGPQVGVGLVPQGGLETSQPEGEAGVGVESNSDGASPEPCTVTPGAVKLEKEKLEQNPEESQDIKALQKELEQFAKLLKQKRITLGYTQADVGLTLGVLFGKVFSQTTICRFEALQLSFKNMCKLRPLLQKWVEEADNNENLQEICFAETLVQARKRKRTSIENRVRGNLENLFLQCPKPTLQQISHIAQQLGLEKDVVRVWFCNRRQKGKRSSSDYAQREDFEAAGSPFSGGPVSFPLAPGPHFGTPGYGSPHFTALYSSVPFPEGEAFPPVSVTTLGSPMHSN

B1: PORE probe (dsDNA)
DNA 1: TATACTAAGCAATTCTTCATTGATTTGAAATGCAAATTTGACTGGGCACCCTGTATCTT
DNA 2: AAGATACAGGGTGCCCAGTCAAATTTGCATTTCAAATCAATGAAGAATTGCTTAGTATA
With B1, the binding result was “binds”.

The values are drawn from article PMC8119428, “LSD1-mediated demethylation of OCT4 safeguards pluripotent stem cells by maintaining the transcription of PORE-motif-containing genes”.
